# Assay results reported in patent publication US20240189408A1, “COMPOSITIONS AND METHODS FOR REDUCING METHANE EMISSIONS IN RUMINANT POPULATIONS” (Arkea Bio Corp., priority 2022, published 2024).
# “And” between values parts separate entries of the source, which are not always exact repeats. Equal values may be shown once.
# What was measured:
# [1] = LNP size and polydispersity by DLS (Malvern Panalytical); type: physicochemical; details: mRNA LNPs, Example 6
# Experimental: (§1) To prepare lipid nanoparticles (LNPs), the mRNA stocks were thawed on ice. Nucleic acid concentrations were validated by absorbance at 260 nm using a NanoDrop. The mRNAs were then diluted to a final concentration of 0.35 mg/mL mRNA in Precision Nanosystem's dilution buffer. 10 mL of the dilute mRNAs were loaded into separate Luer lock syringes and all bubbles were removed by gentle tapping. A NanoAssemblr Ignite NxGen Cartridge was loaded into the cartridge slot of the Ignite instrument (FIG. 8A, 801) and one mRNA syringe was attached to the aqueous inlet of the cartridge. 3.3 mL of Genvoy-ILM reagent was loaded into a separate Luer lock syringes and all bubbles were removed by gentle tapping. The Genvoy-ILM syringe was then attached to the organic inlet of the cartridge. LNPs were then generated and collected into a 15 mL conical tube. The process was repeated for the remaining two mRNAs and for a buffer only LNP control (empty). Immediately after LNPs were generated, the samples were loaded into 10K dialysis cartridges, submerged into 1×DPBS (Ca^2+ and Mg^2+-free) to reduce the ethanol concentration to <0.5%. After dialysis the LNPs were recovered from the dialysis cartridges and sterile filtered at 0.2 um. Size and polydispersity (FIG. 8A, 802) were measured using a Malvern Panalytical DLS by diluting 40 uL of LNPs into 360 uL of 1×DPBS. […] Encapsulation efficiency was measured using a RiboGreen assay following Precision Nanosystems recommended protocol using a BioTek Synergy H1 Plate Reader. The resultant encapsulation efficiencies are shown in Table 14, with an average of ˜85%.
# (§2) To prepare lipid nanoparticles (LNPs), the mRNA stocks were thawed on ice. Nucleic acid concentrations were validated by absorbance at 260 nm using a NanoDrop. The mRNAs were then diluted to a final concentration of 0.35 mg/mL mRNA in Precision Nanosystem's dilution buffer. 10 mL of the dilute mRNAs were loaded into separate Luer lock syringes and all bubbles were removed by gentle tapping. A NanoAssemblr Ignite NxGen Cartridge was loaded into the cartridge slot of the Ignite instrument and one mRNA syringe was attached to the aqueous inlet of the cartridge. 3.3 mL of Genvoy-ILM reagent was loaded into a separate Luer lock syringes and all bubbles were removed by gentle tapping. The Genvoy-LM syringe was then attached to the organic inlet of the cartridge. LNPs were then generated and collected into a 15 mL conical tube. The process was repeated for the remaining mRNAs and for a buffer only LNP control (empty). Immediately after LNPs were generated, the samples were loaded into 10K dialysis cartridges, submerged into Ix DPBS (Ca^2+ and Mg^2+-free) to reduce the ethanol concentration to <0.5%. After dialysis the LNPs were recovered from the dialysis cartridges and sterile filtered at 0.2 um. Size and polydispersity (FIG. 12 and FIG. 13) were measured using a Malvern Panalytical DLS by diluting 40 uL of LNPs into 360 uL of 1×DPBS. […] Encapsulation efficiency was measured using a RiboGreen assay following Precision Nanosystems recommended protocol using a BioTek Synergy H1 Plate Reader. The resultant encapsulation efficiencies are shown in Table 18, with an average of ˜60%.
# (§3) To prepare lipid nanoparticles (LNPs), the mRNA stocks are thawed on ice. Nucleic acid concentrations are validated by absorbance at 260 nm using a NanoDrop. The mRNAs are then diluted to a final concentration of 0.35 mg/mL mRNA in Precision Nanosystem's dilution buffer. 10 mL of the dilute mRNAs are loaded into separate Luer lock syringes and all bubbles are removed by gentle tapping. A NanoAssemblr Ignite NxGen Cartridge is loaded into the cartridge slot of the Ignite instrument and one mRNA syringe is attached to the aqueous inlet of the cartridge. 3.3 mL of Genvoy-ILM reagent is loaded into a separate Luer lock syringes and all bubbles are removed by gentle tapping. The Genvoy-ILM syringe is then attached to the organic inlet of the cartridge. […]
# [2] = LNP encapsulation efficiency, RiboGreen assay; type: physicochemical; details: mRNA LNPs, Example 6
# Experimental: as §1, §2, §3
# total IgG = experiment: Total sera IgG by radial immunodiffusion after IM or SQ vaccination with OVA mRNA LNPs; type: in vivo, dairy cows; details: for Serum IgG Concentration: one line per animal replicate
# Experimental: (§4) Bovine nucleic acid vaccination protocols (SQ and IM) were assessed in vivo in the dairy cows through the quantification of the adaptive immune response following inoculation with ovalbumin (OVA). Immune response was assessed by quantifying total IgG and OVA-specific IgG over a 28-day period after vaccination. Both SQ and IM vaccination provided a robust immune response, with IM vaccination providing a higher total immune response than SQ vaccination.
# (§5) Dairy cows were dried off for a period of eight days prior to vaccination. Each vaccine formulation was administered either by IM or SQ injection to three animals. In total, 15 animals were vaccinated with LNPs containing mRNA and 6 animals were vaccinated with empty LNPs. Intramuscular injections were delivered into the cow's right neck muscle by veterinary-trained staff using an 18-gauge 1-1.5″ needle. Subcutaneous injections were delivered into the cow's right shoulder by veterinary-trained staff using an 18-gauge 0.5-0.75″ needle. Total blood samples (˜20 mL) were collected by veterinary-trained staff. Samples were collected into 10 mL vacutainer tubes (2×10 mL) from the coccygeal vein (tail vein) by needle puncture. Harvested blood samples were then processed via ultracentrifugation for serum collection. Isolated serum samples were aliquoted, labeled and stored in cryogenic tubes at −20° C. until use.
# Sera samples were thawed on ice and total IgG was quantified using Triple J Farms' Ig Radial Immunodiffusion (RID) kits (Cat No. 728411) following the manufacturers recommended protocol.
# ovalbumin (OVA) = experiment: OVA-specific IgG ELISA of sera after IM or SQ vaccination; type: in vivo, dairy cows; details: one line per animal replicate
# Experimental: as §4, §5
# Sera samples were thawed on ice and total IgG was quantified using NovateinBio's Bovine OVA sIgG Antibody ELISA Kit (Cat No. BG-BVN11731) following the manufacturer's recommended protocol. Each of the animals vaccinated with a construct show a demonstrable OVA-specific IgG response over the 28-day test period.
molecule,measurement,setting,value
"ARK011: mRNA: SP + Ova + TM/C, membrane-anchored OVA; SEQ ID NO: 16673 (nucleic acid, listed as DNA) ATGTTCGTGTTCCTCGTGCTCCTGCCCCTCGTCTCCAGCCAGTGCGTGGGGTCCATAGGGGCTGCTTCTATGGAGTTCTGTTTTGATGTTTTCAAGGAACTGAAGGTTCACCATGCTAACGAGAACATCTTTTACTGTCCAATAGCCATCATGAGTGCGCTTGCTATGGTTTATTTGGGTGCAAAAGATTCTACTCGCACTCAGATTAATAAGGTCGTTAGATTCGACAAGCTTCCAGGGTTTGGAGACAGTATTGAGGCCCAATGTGGAACGTCAGTCAACGTCCATTCTTCTCTGCGGGACATTCTCAACCAAATAACGAAGCCAAACGACGTGTATTCCTTCTCACTCGCGTCACGGCTGTATGCTGAAGAAAGGTATCCTATCTTGCCAGAATATCTCCAGTGCGTCAAGGAGTTGTATCGAGGCGGACTGGAACCGATCAACTTTCAGACTGCAGCCGACCAGGCCCGCGAACTGATCAACAGCTGGGTCGAGTCTCAGACCAATGGGATCATACGCAATGTGTTGCAACCGAGTAGTGTCGACTCTCAGACGGCTATGGTCTTGGTGAACGCTATAGTCTTCAAAGGTCTGTGGGAGAAGACCTTCAAGGATGAAGACACACAAGCGATGCCATTCAGAGTCACCGAACAAGAAAGCAAACCCGTCCAAATGATGTACCAAATTGGGCTTTTTCGGGTGGCCTCTATGGCCTCTGAGAAAATGAAAATATTGGAACTGCCCTTCGCCAGCGGCACAATGAGTATGTTGGTCCTTCTTCCAGATGAAGTCTCAGGTCTCGAACAGCTTGAGTCTATCATTAACTTTGAGAAACTCACTGAATGGACTTCTTCCAATGTGATGGAAGAACGAAAAATCAAAGTCTACCTGCCCCGAATGAAGATGGAAGAGAAATATAATTTGACATCAGTTCTGATGGCCATGGGAATCACAGACGTGTTTTCATCCTCTGCGAATCTGTCTGGCATATCTTCCGCAGAATCTCTCAAGATCAGTCAAGCCGTCCACGCGGCCCATGCTGAGATAAATGAGGCGGGCAGAGAGGTGGTGGGGTCCGCCGAAGCTGGAGTCGACGCAGCTTCTGTCAGTGAAGAATTTAGGGCCGATCATCCTTTCCTGTTCTGCATAAAGCACATAGCTACGAACGCTGTGCTTTTCTTTGGCAGATGCGTTTCTCCACCCTGGTACATCTGGCTGGGCTTCATCGCAGGACTGATCGCCATCGTCATGGTCACCATAATGCTCTGTTGCATGACCTCCTGCTGTAGCTGCCTGAAAGGCTGTTGCAGCTGCGGGAGCTGCTGCAAATTCGACGAAGACGATAGCGAACCTGTGCTCAAAGGGGTGAAGTTGCATTACACATAGTGA",PDI,[1],0.1665
same,Z-avg.,[1],97.79 nm·days
same,Encapsulation efficiency,[2],83%
same,Serum IgG Concentration,"total IgG; IM injection, Day 0, dairy cows, dose 348-468 ug","5,261 mg/dL and 5,203 mg/dL and 6,150 mg/dL"
same,Serum IgG Concentration,"total IgG; IM injection, Day 14, dairy cows, dose 348-468 ug","4,902 mg/dL and 5,664 mg/dL and 6,716 mg/dL"
same,Serum IgG Concentration,"total IgG; IM injection, Day 28, dairy cows, dose 348-468 ug","3,702 mg/dL and 4,145 mg/dL and 3,794 mg/dL"
same,Serum IgG Concentration,"total IgG; SQ injection, Day 0, dairy cows, dose 353-468 ug","4,956 mg/dL and 5,599 mg/dL and 4,964 mg/dL"
same,Serum IgG Concentration,"total IgG; SQ injection, Day 14, dairy cows, dose 353-468 ug","4,815 mg/dL and 4,777 mg/dL and 6,139 mg/dL"
same,Serum IgG Concentration,"total IgG; SQ injection, Day 21, dairy cows, dose 353-468 ug","5,722 mg/dL and 4,034 mg/dL and 7,379 mg/dL"
same,Serum IgG Concentration,"total IgG; SQ injection, Day 28, dairy cows, dose 353-468 ug","4,877 mg/dL and 4,344 mg/dL and 3,730 mg/dL"
same,"total sera IgG immune response, treated groups normalized against the empty groups","total IgG; dairy cows, 3 animals per construct, 28-day test period, FIG. 9",robust and prolonged immune response across all 3 animals
same,"OVA-specific IgG, Absorbance (OD450)","ovalbumin (OVA); IM injection, Day 0, dairy cows",0.327 OD450 and 0.591 OD450 and 1.937 OD450
same,"OVA-specific IgG, Absorbance (OD450)","ovalbumin (OVA); IM injection, Day 14, dairy cows",0.64 OD450 and 0.616 OD450 and 1.817 OD450
same,"OVA-specific IgG, Absorbance (OD450)","ovalbumin (OVA); IM injection, Day 21, dairy cows",0.757 OD450 and 0.513 OD450 and 2.024 OD450
same,"OVA-specific IgG, Absorbance (OD450)","ovalbumin (OVA); IM injection, Day 28, dairy cows",0.626 OD450 and 0.603 OD450 and 1.663 OD450
same,"OVA-specific IgG, Absorbance (OD450)","ovalbumin (OVA); SQ injection, Day 0, dairy cows",1.004 OD450 and 0.952 OD450 and 0.756 OD450
same,"OVA-specific IgG, Absorbance (OD450)","ovalbumin (OVA); SQ injection, Day 14, dairy cows",1.16 OD450 and 0.955 OD450 and 1.085 OD450
same,"OVA-specific IgG, Absorbance (OD450)","ovalbumin (OVA); SQ injection, Day 21, dairy cows",1.036 OD450 and 0.7 OD450 and 1.063 OD450
same,"OVA-specific IgG, Absorbance (OD450)","ovalbumin (OVA); SQ injection, Day 28, dairy cows",0.916 OD450 and 0.68 OD450 and 0.704 OD450
